Data published in IntAct's records for PubMed 26977880.

B1: Tumor necrosis factor ligand superfamily member 14 (Homo sapiens), O43557 (parent)
chain: MEESVVRPSVFVVDGQTDIPFTRLGRSHRRQSCSVARVGLGLLLLLMGAGLAVQGWFLLQLHWRLGEMVTRLPDGPAGSWEQLIQERRSHEVNPAAHLTGANSSLTGSGGPLLWETQLGLAFLRGLSYHDGALVVTKAGYYYIYSKVQLGGVGCPLGLASTITHGLYKRTPRYPEELELLVSQQSPCGRATSSSRVWWDSSFLGGVVHLEAGEKVVVRVLDERLVRLRDGTRSYFGAFMV

Variants of: B1
Conditions: with tnr3_mouse Ltbr

Question: Which “effect of a mutation on the interaction” value does the source give for MEESVVRPSVFVVDGQTDIPFTRLGRSHRRQSCSVARVGLGLLLLLMGAGLAVQGWFLLQLHWRLGEMVTRLPDGPAGSWEQLIQERRSHEVNPAAHLTGANSSLTGSGGPLLWETQLGLAFLRGLSYHDGALVVTKTGYYYIYSKVQLGGVGCPLGLAGTITHGLYKRTPRYPEELELLVSQQSPCGRATSSSRVWWDSSFLGGVVHLEAGEKVVVRVLGKRLVRLRDGTRSYFGAFMV [A138T;S160G;D221G;E222K] here?
Answer: causing an interaction
